The text below walks through data of patent US20130337438A1 (JAPAN HEALTH SCIENCES FOUNDATION, published 2013).

This assay deals with T1, HPV35 L1/L2-capsid (human papillomavirus type 35, UniProt P27234 1-469; P27232 1-502).
T1 construct: Capsid of co-expressed L1 and L2 from 293FT cells; The pseudovirus is the same capsid with a reporter plasmid; also called L1/L2-capsid of type 35; HPV35 pseudovirus
T1 sequence 1: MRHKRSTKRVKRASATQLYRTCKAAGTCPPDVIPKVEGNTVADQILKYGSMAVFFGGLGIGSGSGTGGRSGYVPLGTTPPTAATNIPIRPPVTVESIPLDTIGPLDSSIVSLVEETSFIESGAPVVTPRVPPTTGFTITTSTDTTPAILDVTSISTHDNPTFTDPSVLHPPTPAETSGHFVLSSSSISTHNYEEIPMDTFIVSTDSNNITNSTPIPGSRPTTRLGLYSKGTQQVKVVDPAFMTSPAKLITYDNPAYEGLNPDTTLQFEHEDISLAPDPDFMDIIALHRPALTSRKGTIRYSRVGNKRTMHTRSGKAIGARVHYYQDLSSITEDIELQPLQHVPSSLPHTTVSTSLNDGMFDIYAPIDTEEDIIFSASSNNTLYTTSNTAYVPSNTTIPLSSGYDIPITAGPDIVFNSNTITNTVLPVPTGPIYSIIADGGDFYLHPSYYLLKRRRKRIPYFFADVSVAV
T1 sequence 2: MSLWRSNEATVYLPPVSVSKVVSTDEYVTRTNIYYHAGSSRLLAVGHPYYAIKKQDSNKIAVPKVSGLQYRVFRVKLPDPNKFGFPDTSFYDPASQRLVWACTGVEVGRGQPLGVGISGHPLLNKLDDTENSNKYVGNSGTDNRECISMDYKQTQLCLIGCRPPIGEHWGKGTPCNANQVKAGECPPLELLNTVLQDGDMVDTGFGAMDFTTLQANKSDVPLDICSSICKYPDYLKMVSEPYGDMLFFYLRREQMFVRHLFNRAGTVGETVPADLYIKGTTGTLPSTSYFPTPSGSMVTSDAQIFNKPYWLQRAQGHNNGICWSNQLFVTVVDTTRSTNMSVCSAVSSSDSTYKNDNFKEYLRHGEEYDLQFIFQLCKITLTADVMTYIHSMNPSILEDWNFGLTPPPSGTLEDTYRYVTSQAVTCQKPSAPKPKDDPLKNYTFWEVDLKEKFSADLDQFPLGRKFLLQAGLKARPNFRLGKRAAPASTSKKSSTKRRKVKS
Kind of assay: ELISA on immobilized L1/L2-capsid. In general terms: An ELISA detects its analyte on a solid surface through an enzyme-linked reagent.

B1: monoclonal antibody 13B (antibody, V domains shown)
VH: DVQLQESGPGLVKPSQSLSLSCTVTGYSITSDSAWNWIRQFPGNKLEWMGYITFSGSTNYNPSLKSRLSITRDTSKNQFFLQLNSVTTEDTATYYCTGPFLDYWGQGTTLTVSS
VL: DVVMTQTPLSLPVSLGDQATISCRSSLSLVLSNRITYLQWYLQKPGQSPKLLIYKVSNRFSGVPDRFSGSGSGTDFTLKISRVEAEDLGVYFCSQSSHFPWTFGGGTKLEIKR
notes: Used as mouse ascites or as antibody purified from ascites; also called Mouse-Mouse hybridoma 13B (FERM BP-11304)
For B1, the binding result is “no binding (tested: ascites diluted 1:100)”.
